We go through three molecules from patent US20150315279A1 (CELLERANT THERAPEUTICS, published 2015).

No end group written: not given here.

Assay [1] has as its target T1, secreted form of IL1RAP (recombinant) (human, UniProt Q9NPH3 21-350).
T1 construct: also called recombinant form of the secreted IL1RAP; soluble IL1RAP
T1 sequence: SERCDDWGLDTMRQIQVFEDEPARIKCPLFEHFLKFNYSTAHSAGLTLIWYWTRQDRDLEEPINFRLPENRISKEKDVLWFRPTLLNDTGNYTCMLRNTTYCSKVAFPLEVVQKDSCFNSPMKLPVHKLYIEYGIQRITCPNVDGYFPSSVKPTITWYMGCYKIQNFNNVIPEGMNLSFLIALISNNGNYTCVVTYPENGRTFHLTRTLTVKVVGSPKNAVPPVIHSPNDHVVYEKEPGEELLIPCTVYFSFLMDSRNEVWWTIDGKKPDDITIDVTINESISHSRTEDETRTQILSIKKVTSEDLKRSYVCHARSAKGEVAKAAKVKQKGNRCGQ
In words: ELISA, antigen captured by goat anti-human IL1RAP polyclonal, serially diluted antibody. From the text:
(§1) The binding specificity of purified 4B6 was confirmed by ELISA assays described below. Wells of 96-well plate were coated with goat-anti-human IL1RAP polyclonal antibodies to capture various forms of IL1RAP. Forms of IL1RAP captured were (a) ECD form of IL1RAP, (b) the secreted form IL1RAP, and (c) human serum containing the secreted form of IL1RAP. Each captured form was then reacted with serially diluted tested antibody 4B6, control antibody 12G6, or a mouse IgG1 isotype control antibody. After incubation and washing, wells were reacted with secondary donkey-anti-mouse-HRP polyclonal antibodies. Color was developed with TMB substrate after incubation and PBS washes.
(In general: ELISA stands for enzyme-linked immunosorbent assay.)

The target of assay [2] is T2, soluble (secreted) form of IL1RAP in normal human serum (human, UniProt Q9NPH3 21-350).
T2 construct: Natural protein captured from human serum; also called IL1RAP from NHS; natural secreted form of IL1RAP in human serum
T2 sequence: T1 sequence
As to the kind of experiment: ELISA, antigen captured from human serum by goat anti-human IL1RAP polyclonal, serially diluted antibody.
Source text: as §1

Assay [3] addresses T1, secreted form of IL1RAP (recombinant). As to the kind of experiment: ELISA, antigen coated at 2 ug/ml. Here is the method: (§2) An ELISA was performed to further determine the specificity of monoclonal antibodies 4G9, 12F1, and 42E1. Wells of 96-well plate were coated with the secreted form of IL1RAP, ECD form of IL1RAP, ACPep-1 conjugated to KLH, or unconjugated KLH at 2 ug/ml overnight at 2-8° C. The coated wells were washed with PBS with 0.05% Tween-20, and then blocked with 1% BSA. Purified test antibodies 4G9, 12F1 and 42E1 were diluted to 20 ug/ml, added to wells coated with various proteins, and incubated at RT for 1 hr. Antibody 12G6, which binds to both the ECD and the secreted form of IL1RAP, was added as a control. Mouse IgG1 was also added as an isotype control. After incubation and PBS washes, donkey anti-mouse-HRP polyclonal antibodies were added. Color was developed with TMB substrate after incubation and PBS washes. The reaction was quenched with acid and the plate was read at 450 nm.

Assay [4] addresses T3, ACPep-1 conjugated to KLH (human, also: conjugated to KLH, site and chemistry not given here).
T3 construct: Peptide-carrier conjugate; also called ACPep-1-KLH; ACPep-1 conjugated KLH; not shown: Keyhole limpet hemocyanin (KLH) carrier
T3 peptide: VKQKVPAPRYTVELAC
As to the kind of experiment: ELISA, antigen coated at 2 ug/ml, antibody at 20 ug/ml. Here is the method:
as §2

The target of assay [5] is T4, extracellular domain (ECD) form of IL1RAP (human, UniProt Q9NPH3 21-367).
T4 construct: also called ECD of IL1RAP; ECD IL1RAP
T4 sequence: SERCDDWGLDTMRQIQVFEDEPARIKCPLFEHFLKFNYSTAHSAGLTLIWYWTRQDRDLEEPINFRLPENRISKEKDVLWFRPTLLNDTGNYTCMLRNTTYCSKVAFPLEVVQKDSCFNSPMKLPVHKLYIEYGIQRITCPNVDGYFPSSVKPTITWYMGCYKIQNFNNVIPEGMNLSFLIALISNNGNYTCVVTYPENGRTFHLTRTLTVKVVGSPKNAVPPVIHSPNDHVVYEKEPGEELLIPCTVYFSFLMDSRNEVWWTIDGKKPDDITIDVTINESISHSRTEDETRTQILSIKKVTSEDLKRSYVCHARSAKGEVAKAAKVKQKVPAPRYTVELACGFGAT
In words: ELISA, IL1RAP captured by goat anti-human IL1RAP polyclonal, 1F5 at 1 µg/ml. Here is the method: Wells of a 96-well ELISA plate were coated with goat-anti-human IL1RAP polyclonal at 0.5 μg/ml and incubated overnight at 2-8° C. The coated wells were washed with PBS with 0.05% Tween-20, then blocked with 1% BSA. IL1RAP was added into the wells at 0.5, 1, or 2 μg/ml followed by an incubation and a 3×PBS wash. After the 3×PBS wash, antibody 1F5 was added to the wells at 1 μg/ml followed by an incubation and a 3×PBS wash. After the 3×PBS wash, donkey-anti-mouse-HRP was added to the wells at a 1:50,000 dilution followed by an incubation and a 3×PBS wash. Color was developed with TMB substrate. The reaction was quenched with acid and the plate was read at 450 nm.

Another assay deals with T5, peptide AC Pep-1 (human).
T5 peptide: VKQKVPAPRYTVELAC
In words: ELISA of hybridoma supernatant on peptide AC Pep-1.

Assay [6] concerns the target T6, human interleukin 1 receptor accessory protein, membrane-bound (receptor) form on cells (human, UniProt Q9NPH3 21-570).
T6 construct: also called IL1RAP; receptor IL1RAP
T6 sequence: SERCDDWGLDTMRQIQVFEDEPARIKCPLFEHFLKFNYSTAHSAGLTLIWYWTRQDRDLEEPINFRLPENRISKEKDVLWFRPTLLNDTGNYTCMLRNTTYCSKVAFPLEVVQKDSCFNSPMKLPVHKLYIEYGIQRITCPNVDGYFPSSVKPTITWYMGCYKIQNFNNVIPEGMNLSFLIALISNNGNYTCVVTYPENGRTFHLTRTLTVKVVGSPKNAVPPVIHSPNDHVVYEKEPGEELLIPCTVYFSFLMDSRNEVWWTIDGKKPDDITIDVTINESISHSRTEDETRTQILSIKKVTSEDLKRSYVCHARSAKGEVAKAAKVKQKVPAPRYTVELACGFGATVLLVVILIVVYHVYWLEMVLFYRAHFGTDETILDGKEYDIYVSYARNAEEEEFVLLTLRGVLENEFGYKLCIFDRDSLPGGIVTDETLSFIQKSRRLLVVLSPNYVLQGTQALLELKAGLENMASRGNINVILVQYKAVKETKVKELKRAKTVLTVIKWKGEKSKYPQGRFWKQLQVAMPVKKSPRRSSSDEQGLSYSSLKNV
As to the kind of experiment: flow cytometry on BMMC or PBMC of AML patients, 1F5 at 2 µg/mL. How it is done:
Bone Marrow-Derived […] (BMMC) or Peripheral Blood Mononuclear Cells (PBMC) were isolated by Ficoll separation (GE Healthcare) from bone marrow aspirate or whole blood respectively of AML patients. Cells were resuspended in staining solution (HBSS, 1% BSA, 1 mM EDTA) to 2×10⁶ cells/mL and blocked with mouse and rat IgG prior to staining. Unconjugated IgG2a or 1F5 antibodies were added to each tube to a final concentration of 2 μg/mL. 50 μL of the cell solution was added to each tube and incubated on ice for 30 min (each stage of incubation was 30 min). Cells were washed with staining solution and resuspended in 100 μL of staining solution with a […] concentration of anti-mouse-PE secondary. Cells were washed with staining solution and resuspended in 100 μL of staining solution with 5 μL each of CD34-FITC, CD45-APC and CD38-APC (BD). Cells were washed with staining solution and resuspended in 200 μL. Cells were immediately applied to flow cytometry for analysis.
(In flow cytometry, cells or beads pass a laser one at a time.)

For assay [7], the target named is T2, soluble (secreted) form of IL1RAP in …. In words: sandwich ELISA with normal human serum.
For assay [8], the target named is T7, 12-mer peptide VPAPRYTVELAC (human).
T7 construct: also called unconjugated peptide
T7 peptide: VPAPRYTVELAC
As to the kind of experiment: ELISA, peptide adsorbed on the plate. Here is the method: Peptide was conjugated to Keyhole Limpet Hemocyanin (KLH) using methods known in the art. Unconjugated peptide, KLH-peptide, and KLH were then adsorbed onto different wells of a MAXIBIND 96-well ELISA plate, which was then blocked with 1% BSA. Anti-IL1RAP antibody 1F5 was then added to the wells followed by an incubation and a wash. After the wash, donkey-anti-mouse-HRP was added to the wells at a 1:50,000 dilution followed by an incubation and a wash. Color was developed with TMB substrate. The reaction was quenched with acid and the plate was read at 450 nm.

B1: monoclonal antibody 4B6 (antibody, V domains shown)
VH: EVKLVESGGGLVKPGGSLKLSCAASGFTFRTYAMSWVRQTPEKRLEWVASISSRGRIYYPDSVKGRFTISRDNARNILYLQMSSLRSEDTAMYYCARDGDYGSSYDYWGQGTTLTVSS
VL: DIQMTQSPSSLSASLGERVSLTCRASQDIGSSLNWLQQEPDGTIKRLIYATSSLDSGVPKRFSGSRSGSDYSLTISSLESEDFVDYYCLQYASSPWTFGGGTKLEIK
Regarding B1, the binding result in assay [1] and in [2] was “no binding” each time.

B2: monoclonal antibody 4G9 (antibody, V domains shown)
VH: QVQLQQSGTELVRPGASVKLSCKASGYTFTDYEMHWVKQTPVHGLEWIGAIDPGTGGIAYNQKFKGKATLTADKSSSTAYMELRSLTSEDSAVYYCTLYDYDLAYWGQGTLVTVSA
VL: DVLMTQTPLSLPVSLGDQASISCRSSQSIVHSNGNTYLEWFLQKPGQSPKLLIYTVSNRFSGVPDRFSGSGSGTDFTLKISRVEAEDLGVYYCFQGSHVPPTFGGGTKLEIK
For B2, the binding result is “no binding (tested: 20 ug/ml)” in assay [3] and “binds” in [4].

B3: anti-receptor IL1RAP antibody clone 1F5 (antibody, V domains shown)
VH: EVKLVESGGGLVKPGASLKLSCAASGFTFSNYGMSWVRQTSDKRLEWVASISSGGGSTYYPDNVKGRFTISRENAKNTLYLQMSSLKSEDTALYYCARVLPGRWAMDYWGQGSSVTVSS
VL: DVVMTQTPLSLPVSLGDQASISCRSSQSLVHINGNTYLHWYLQKPGQSPKLLIYKVSNRFSGVPDRFSGSGSGTDFTLKISRVEAEDLGVYFCSQSTHVPWTFGGGTKLEIK
notes: Mouse monoclonal antibody from a hybridoma (A/J mice immunised with AC Pep-1-KLH); IgG2a was used as its control in flow cytometry; Hybridoma supernatants were used in some assays; also called anti-IL1RAP antibody 1F5; 1F5 supernatants
Take B3: the binding result in [5] is “binds”; with peptide AC Pep-1 it was “binds”; in [6] it was “binds”; in [7] it was “no binding”; in assay [8], “binds”.
